A protein production outcome set (Wang et al. 2014)

Test: label from the status in PepcDB records

| Sequence | protein production |
| --- | --- |
| MNSKSQQQEQQPIVFVTGTDTDVGKTFVSTLLVHKWKAAYWKPVQTGIESDQGDSETLKNFKIAASTWQPPIFTPTYALQKPLSPLQAMEYEPNVDIRLLDFVVPEEWSAENPLVVEGAGGVCVPITRKLEITTDLIKHLIETSGHPVYVVVVARSGLGTLNHTLLTWNHLCDNGLRSHLFGVILNGEPNEGNVQALKKFGVNIMAQVAQCTTAHDQDMELHELPSVESLMTQQDVE | failed |
| MNSMKLYIFACLCSLILWGVSCNEESAGIPTGSLFLGIEEDATLLTKAESAVTNESLRVDIIAAEGDTIKSYSDYIDEVKGKKIVLPVGTYTISVKSNQSEEAGWEKPFYSGSKEITIQSGEITSVQIVCKISNTKVAVEYADNLADYFSHYETTVSNTSGSLLYTRDETRAGFFKAEKLTADLKLVNQDGNEFAMQRVFPDIKERYFYKIKYSLDDGGGDNEEAGADFGGIIVDEKADTIYYGIFIKQEDLFGKSVPKLALDGFTENKIVYKKTENPSVPEHSLTIEAPNGIKQLKVETTSFQFADVPSFDLCNLTDAARTRLQQLDFPMQEVKDKQELTFVLTDFAKALEPASVTQMATHTFTFSVLDNLHQETTVQFIYEIRPNVNVTTEEPVVWAKFVTLRGNSIDRDNIGFMLKKKADADFQRYDATIYNEQTGDFSLLLIENIMPGTEYEYYAVSGTDAQGNVKTFTTSPIVNLKNNTFDEWFKNGKTWFPNVDVSKWWDSGNTGANTAGENNPTSPEESVVVKGKAAKLQSTWIGFIGIGAFASASMFTGNFVDIDGTNGILSFGQPFTAKPTKLTGYYKYTPVNIDYMEQWDSKVDPDLKSGDSDQCIIYIALCTKNYEIRTNPKSRQLFDPNDASVIAYGELVAKEAVSGEEANGYKKFSIDIKYRKTDVTPSYIVVVAAASRYGDYFTGGKGSTLYIDEFNLEYDYNAASFTNE | failed |
| MNSPANITDPLVLFMPSGKRGRFPVGTPVLDAARQLGVYVESVCGGRATCGRCQIEVQEGNFAKHKIVSSNDHISPKGPKEERYERVRGLPERRRLSCSAQILGDLVIDVPQDTVINALEHHHHHH | failed |
| MNSSIVNAGIDPQVRESLKSFVGEAIDYANTSGKDAAIAKFNDQNGTFVRGNLYVYAFDYNGTTLALPYQPQLIGTDLSGLQDPYGVNYTKLEHHHHHH | not failed |
| MNSVRKIKCLFLIFLDILFINLGYFISLCFEYGKEMKIEYFFNIRNLIILAIFTNILIFCFFNLYKNIWHMAGISECIRCLIASSISSILLILYKFIFNMDVTIVFLINSSILICMFSLLTRMSIRIFRKIYFPYKLESNLRKNVLIVGAGHCGRIVIDEMNKNNKFNPIGIVDDDLNKKGTFLNGVKVLGNRDDIEKICKRIKVDIILIAISNLSSNDKDEIIKRCENTKIKVKIIPSIYDLIDGNVKLTNIRDIDLRDLLGRDETRLDKEEVNNYIKEKIVIVTGGGGSIGSELCRQIAVFNPKKLIILDIYENYAYELENELKRNFKNLDLEVIIASIRDKSRLKKIFDKYKPDLIFHAAAHKHVPLMENNPEEAIKNNVLGTLNVAECADEFNLEKFVFISTDKAVNPTNIMGATKRIGEMIIQAMNEVSKTDFVAVRFGNVLGSNGSVIPLFIEQIKNGGPVTLTHKDITRYFMLIPEAAQLVLQAGAYAKGGEIFVLDMGKPVKIYDLTEKLIRLSGFEPNKDIQIKIVGLRPGEKLYEELILSEEELKKTKNEKIFILSPFKFDIKEIKKKIVELLNVALNEDKKAIKEKLKEIVKNYRDLEQIDFI | failed |
| MNTFAIPAPLIDAWRTTLETLRNLTGLGFGLLTRENGGELEIMVTAGELPSPFAEGYCLKGGPEGPLCAVVHTLARSLLIPDTTADARWASNPAVKAGVRAYFGLPLRLPTGALFGTLCLGSMSPVTGHDAVLKPLHCFATLVEQHIALLSTNALLRSQLDALPGASFASDPHGQMLFASNRCGSLLDLHPADIPGSDVDTVFNRIAALCESPEECHAILRRSFTLGGPSNGKLAFDDGRTIRWQARRLREDAGSVLGCTWFLEDATAELQARAGLTRSEALFRGLFNNAAVGIVLLDRQGFVVRSNVACARMLGTSPEQMHGLSFRAVLPPEDADQHLEEMQSLAEGETDELHGCWEMLHRNGSRLRVDLHGARLPGSGEEVVMLVGVDVTEQWRTERALAESERRYRALFDNAQAGIFRTSLADGTFLEANLRMAQMFGYDDVATFMAEYRAAENYVDPADRALMLDRLRTSGSFATMETHMRRRDGTTTWFLYSGTLDGDTIIGVANEISEMRATQEALRRSEERYRALFDNAADGLLLYEADGTLIDVNETIARRLGESREAIVGRNVASIVEPEVLERVRPRLAEILETGHASFESVHRTAMGPVNVEVHARRIEFEGRFVVLSSARDITERKNLEAALLREATTDPLTGGRNRRQFFVDANREFARALRHDSGLAVLMLDIDHFKNVNDLYGHQAGDEVLRAFAACCVEALRAYDVFGRLGGEEFAALLPAASPEEAMETAERLRKRVERRSVVYEGTALQCTVSVGVTSLAAADLGFDDMLRRADRALYAAKDHGRNRSEMAPMPMVPAEIPPPRKPFRE | failed |
| MNTKIITILFIAFLSVLFFTGCIEEKISSQEHGSTKGISSSNDENTENRTVTDSLGRQVQVPLMVERVADTWMGHNEVLAMLGADDRLVATMFSPQSRPWMYKVCPTFNDAVTLSPTYDIEELLATKPDVVFMSKSDKNLEKISNLGIPAVQVSFTDFDSMKKCISDTANVLGDEEALERAQQYNTYLDSKLESVRNTSSQIPDENRPKVLHVVSLSPLCVDGGGNIISDWIEAAGGVNAAEEVKGGIMQEVSMEQILKWNPDVIILSVNAKSREKEQIMNSDQWKKVKAIQDNRVFLNPEGAFIWSRAGAEEALQIQWAAKTINPDKFQFIDINNETKWFYKTFFEYELTDEEVQKILNAEAPN | failed |
| MNTKKESALSFPSAGIESFGERLKELMGDESLRAFANAIDTSEGGVRKWFTQSTMPSFDKMVRIARRYNVNLEWLCTGEGPKFPGETAAYESVICKTEEFSEEYALIDGYHTQVSTGHGAQWDNERVRRKLAFRSKWLRYRGLQPENLRVVFAKGDSMEPTIHSGDSILVDITDANLSDGSIFVLRIGDDLFAKRVQVHIDGSITIISDNKEYREQRVPVAELGLLSVVGKVVWIGKDVK | failed |
| MNTKLTKIISGLFVATAAFQTASAGNITDIKVSSLPNKQKIVKVSFDKEIVNPTGFVTSSPARIALDFEQTGISMDQQVLEYADPLLSKISAAQNSSRARLVLNLNKPGQYNTEVRGNKVWIFINESDDTVSAPARPAVKAAPAAPAKQQAAAPSTKSAVSVSKPFTPAKQQAAAPFTESVVSVSAPFSPAKQQAAASAKQQTAAPAKQQAATPAKQTNIDFRKDGKNAGIIELAALGFAGQPDISQQHDHIIVTLKNHTLPTTLQRSLDVADFKTPVQKVTLKRLNNDTQLIITTAGNWELVNKSAAPGYFTFQVLPKKQNLESGGVNNAPKTFTGRKISLDFQDVEIRTILQILAKESGMNIVASDSVNGKMTLSLKDVPWDQALDLVMQARNLDMRQQGNIVNIAPRDELLAKDKAFLQAEKDIADLGALYSQNFQLKYKNVEEFRSILRLDNADTTGNRNTLVSGRGSVLIDPATNTLIVTDTRSVIEKFRKLIDELDVPAQQVMIEARIVEAADGFSRDLGVKFGATGKKKLKNDTSAFGWGVNSGFGGDDKWGAETKINLPITAAANSISLVRAISSGALNLELSASESLSKTKTLANPRVLTQNRKEAKIESGYEIPFTVTSIANGGSSTNTELKKAVLGLTVTPNITPDGQIIMTVKINKDSPAQCASGNQTILCISTKNLNTQAMVENGGTLIVGGIYEEDNGNTLTKVPLLGDIPVIGNLFKTRGKKTDRRELLIFITPRIMGTAGNSLRY | failed |
| MNTNVYENTDSETITPLNKRRILPVFLLVGLYAASTAAVMSVLPFYIREMGGSPLIIGIIIATEAFSQFCAAPLIGHLSDRVGRKRILIVTLAIAAISLLLLANAQCILFILLARTLFGISAGNLSAAAAYIADCTHVRNRRQAIGILTGCIGLGGIVGAGVSGWLSRISLGAPIYAAFILVLGAALVAIWGLKDPSTTSRTTDKIASFSARAILKMPVLRVLIIVMLCHFFAYGMYSSQLPVFLSDTFIWNGLPFGPKALSYLLMADGVINIFVQLFLLGWVSQYFSERKLIILIFALLCTGFLTAGIATTIPVLIFAIVCISIADALAKPTYLAALSVHVSPARQGIVIGTAQALIAIADFISPVLGGFVLGYALYGVWIGIAISVAIIGLVTAMIYLSKSSPLIAKPETE | failed |
| MNTPHGPLEYSLNSPFKAKGRFGRLSFAAWSFVSTLAIIGMLLVISVVFGALASDSNAIQIFGSLLLIAIYVTFLVFSVIFIIRRLHDRNHNGWFAILFFIPIINLIFIIYLLCAKGDIETNRFGAPRATPSWERVMGWIYIVLMPIVVILGVSSDAMMAYQRYTLHSKQVSDVSQMIQPVSTHNNRLS | failed |
| MNTQEPAGLFTAVYEGDENTVVRLLRAGTAADARDEDGQTALYLAAVSNEPGIVRLLLAAGADPDRLSADADSPLCGAACGGHAEVVRALLAAGATADLEEEFGFRALTWAVQRGQVEILTELLAAGAHPDRPGPTGEAPLVAAARRGSPGCVRALLAHGAGARSPALDEARRWPALDVEAELRAGLEQMYGSGHEMVTHRIPEDGGITVEVQLRTGERTMAGNDQQTGHAAIITLLEAALGIATPVPELADRALRCGDPANDDWTEAVSVLVRRAGGETFTAATAWSRSPDPLRRALGTEILRKLGR | failed |
| MNTRAPAVEARQLIKTYPGDVTALSGMDITVEPGTVFGLLGPNGAGKSTTVKILTTLARPDSGTATVAGHDVLRHPDRVRRAIGVVAQSSGADPVATGRENLRLQGRLHGLKGAGLSRRVAELLDRFKLADAAGRQVKGYSGGMRRRLDVALGLVHRPEVLFLDEPTTGLDPEARTAMWDEIARLAGDEGLTILLTTHYLEEADRLAERIAIVDRGRVVVEGTPDGLKGELRGDAIHLELREAVGQAGRTLLKGSLGGVPGVHEVLFDDAQGRRVSVRADDGAAAMPALLGALERAGVGVAAATVARPSLDDVYLRHAGRRYSEAEAEGADSLALAGATGGTRLEHHHHHH | failed |
| MNTRLNEPDLPGDIDIKDLDPLVLQDLKVLSKDNADAVAKHMIMAATWLADDPQLALRHARAAKDRAGRVSVVRETNGIAAYHAGEWKEALSELRAARRMSGGPGLIAVMADCERGLGRPEKAIELAREEDLSSLDQDNLIELAIVVAGARHDLGQHDSAIVELQKVNPSLKSTGFTHSRLSYAYADALVLAGRGDEAREWFQHAATLDEDGYLDAEERIEQLDNGNN | failed |
| MNTRNFSLPQLQNLPIEEARIVADALAVHATSRQIDSAASKLAALAEAGLKGDRQAYAAYQQLLYVLSLSDDVATAQTRRWLARAIYRVEERFMPAADLSRALSEEDFQKRLEQEIAAQSRERHPMSQYVFSGSASRAQLQVFLRHQWFRTFRLYRDAADLLVNLTDVDEAAALARYLYGELGEEDEKGSHPRLLAKLLEAIGLEADFQAVSTMPEEIAYLNNRARAFRHAEVGWGLAVFYITELVVPGNHEKLYRALLQAGLSEDQAEYYKVHISLVPPRAKREWQLIARRIPDVQFQNAFLTSLSQHFRVERAYYDAIWEEMQSVK | not failed |
| MNTYKKIFYFSTILFFYSGFSYAQNINLLLRKGNTCYRKGQYKNAAPYYDQVLKTDPENIQALYKSGVCNLFRYSKEQALINFEKVLQKDSSYDKYLYYWLGRANQLNFNFDQADFFYTAFQQKTSKNKIQYKEADRYKYQLKCARNFVANPANYKIQNLGAAVNSSFSDHSPVVSYTDTLLFFTSRRVTNTEAKEEHDGEPFEDIFYSYRNSTGEWSKPELFHLNTSGHDATIQLFDNDTKIFIYSYLHDGDILLAHKNAGTWSTPVPVKEINSADFESDAFMTADGKTLYYATNHFKKNGDLDICFITKKDDNTWSKPQTLSSLINTDEDEDAPYISADGKTMYFSSRGHTSMGGYDIFKSELDSVTGQWQKPVNLGYPVNTPDEDLYFCLSAKTKRAFMSSYRTGGFGEKDIYEIIPVKNIQLLGSVMKGDTSTPFPNVTMQYIPMAGAMKGAQKTQVNTLADGTYTTELLSDNAYLVYISQGKDTLLKDTLVLPLNEFDHYVYKQLYILNIHDTAAVKDSVIHKVTDTIKTIAAAEIAKTVYFESNRADLNAEAKTELNQLGIYLDTHKEANVYISGHADALGSAAINNALSQKRAQAAAVYLKAKGISAARIKVESFGSEKPVETNATVEGRAKNRRVQIVVK | failed |
